The DeepSol protein solubility set

Experiment: soluble on expression in E. coli; label from the status in PepcDB or PDB records
For “MAHHHHHHMTDEKKEEWIRRPYTRSIPVKLRSLAQLEESTVDATTQWYELLEQLVTETDVKGILQQTTKRKAARKLEELASQLRAVMQEMTAQSGRVVREGVDTQSFEQFCAWAGSTPSLQTTEASNGCTQMDKLCARVCMLCLCVAVILNDLELLICGMSFAESHKLLETYSRECEQRSVRQSNSIPDSGMEKGKNSEDVVLCSTVAHTLICGNDHNTFVPLADGDVLLACTLLYYLYTQDGPSASKSVMILERVLHCAEEVGYTSDVLDETGGYRIDFFYTISRMANWVETDNCPRLYQRIAHGFHGGSEVLVPFPPFVFLFTQVMLHMVVRRRLVEMQLQNVWRPVVTMDAAPVGCDGTAAETCSHVHPTVSSTSLCSAHGSKFFAVCLMLQRDCLSQYRSWPLPMELQKSFFC”, the “soluble on expression in E. coli” value was “not soluble”.
With “MAHHHHHHMTETTGARGRRTFMGRRRSQHEVQTEASFVPGCSSLEYAYDPLASEQYANLVELRQMIHSCLTLVAGDVYDVVSFKDILYHLESEMPSSLPVTDLLLLSSRLFRRTAELGRLLSCFFGVVFADDRNDEHFRFAEVRLLQREIRELKRQLSASEEERRRLKEMLDNVGQVAYDHGRAVELLETHNKVLKKQSTALEDQMALLFHQLNTGLEGHCKSAYQQVTGEMMVQESLNPARITFRQTMDSLSEQLRGSRGLITDVREVLLSCSQGRRTGEAYAAVEPTVRFKLKMLEANFQQLMGRFTAVKDTVVETAQELMNALQERKKILCLSFQHIRLYDLQNAKLRNARAILAQLQHNTSEVVRRIRVTFPSGNLTSVDRFGNIRTQRWHGGYTLATLRGYNLTEQQQQGEGEMSEVARSSTAVPSLTAGASRTLPGLTESQIMAAESEMAVIDGGVHSVTPVGLALSPGFRSMRASHSGVSPPPLRTSVPPSRGGSKLASARGSSSTTGMPAPVSAPTSVRSDDPDVLPFESVSTFVDLMHDIHDDMDELQSALVLDDEMAAFLKVLTLSASTTPRADALEIAGDPTGRAALLERQEYNMETALQPTGGRPGGTRGAPSSASVVSGNESITALEANSFSSLFSKMGTPSTSSEARGGARAENASSEAVMARQAVQLQRQQKQIAKMQEDFTSKVGFLRQVYEARIGDLEVRETTVSKRLGLVGGSAFQRGAGDGGSGRSSPGVRKGEDESPVSSSPGDKERLTKLRKEWRQSKRKLQPNRKLREATAEQLQLMQKDEKL” the “soluble on expression in E. coli” value was “not soluble”.
In the case of “MAHHHHHHMTMRRFGGALTRPLGGMRRVVVGPNGSVPEAGCVPTFETRRRKRLRLGGSLTGDWVASTESLSGSCVREEEARLLCFEKYGFVHKPLTMASWSDFLQELARFEFRWRLLPCVGGVTVLNIVERNCGDENVLCDLRTSCGSAPFAQFFECLGAFVQGTSEKRCIMFCDPNGLEQSLEIRAKRHLSPALGEGFEDEKPILPTLAQYDCRGTLVDLVLKDMKTDVLRPIISDISMQALNYAFLVSIPLFLRQADVGVRNTDLVSKEQMRHFRFAWCFLRRESMMTPVEIGELDTLLPP”, the “soluble on expression in E. coli” value is reported as “not soluble”.
In the case of “MAHHHHHHMTTLYDELYLLFDEYIVRNCKQPNTYESLFCKKEFVQFAKLHGTSVVVTSPKKEIKNKDEIIDELIYAFKLFAKYTSMCDFFSKNEEVDDINTIYLKFLLIPYILGVLCYETISMEIRSDRLKEAKLYFGEFINVVNVYKIAPVEDYLLDEGGEVNQAMNRRNIKVKRAKDEKKLQDFYDDMIKMNVKKGSSQNYNHLCFADHMEEEQIREIYLSLIKCKCLQTLNMMDLIDTEIEVLEMRNRQQVQDKQHQNGKPTQGTKDTHDGQPPHQNKHPKDGIKKPWLFTIKKNMPLADMTQMRNYYRDLVFTPAHNLPTISLEECAKIEMEYALKGEGMAPRSEEERRGNPKSGTIKGAAQNGTDDEEDYEKSSKEESEKELMDREWDDWKDMHQKGIGNKNRNVA”, the “soluble on expression in E. coli” value is reported as “not soluble”.
With “MAHHHHHHMVDLLQRALANPFQDKLTFSPEDWDAHGLQPYQRCLREPFLRGCDTLVHKIRMQRIDFAKGILEQVVEDVQFRQKWGSLGEDYVTENAVQLTAYIFDSQERSLGGRRDPRKEDGAAQNIVYQPSTLSLGGDPALESLVTCVWFLRRDVLLLHQDFCYPVCEGRLTVFGRVQVALLRFYVRHAIKPRLLFLRQQHRGTLVVVELMMIGFAFCVERLMRPGLTCSGTVARRIRRVQGGTASSTSTGSGLVSGVHGEDSVAAASSGGGSAGGGGGGGGGGKLHCRPGRRRRWVVVM” the “soluble on expression in E. coli” value was “not soluble”.
In the case of “MAHHHHHHMVFNQDHHEKECADAFVLARDGMSDFEGEKIERAFRGVTAALRFLDYQETTGTSTRSPTGSNSNAEQRSSGSHEPLVSGEDTNYHHVVCLVRSLDGEKENTPVN”, the “soluble on expression in E. coli” value is reported as “not soluble”.
